From the DeepSol protein solubility set come the findings set out here.

This data set in a line: soluble on expression in E. coli; label from the status in PepcDB or PDB records.
Take “ELVMTQSPLSLPVSLGDQASISCRPSQSLVHSNGNTYLHWYLQKPGQSPKLLIYRVSNRFSGVPDRFSGSGSGTAFTLKISRVEAEDLGVYFCSQGTHVPYTFGGGTKLELKRADAAPTVSIFPPSSEQLTSGGASVVCFLNNFYPKDINVKWKIDGSERQNGVLNSWTDQDSKDSTYSMSSTLTLTKDEYERHNSYTCEATHKTSTSPIVKSFNRNEC”: the “soluble on expression in E. coli” value was “soluble”.
To “ELVVTQESALTTSPGETVTLTCRSSSGAVTTSNYATWVQEKPDHLFTGLIGGTNKRAPGVPARFSGSLIGDRAALTITGAQTEDEAIYFCALWNSNHLVFGGGTKLEIKRTVAAPSVFIFPPSDEQLKSGTASVVCLLNNFYPREAKVQWKVDNALQSGNSQESVTEQDSKDSTYSLSSTLTLSKADYEKHKVYACEVTHQGLSSPVTKSFNRGEC” belongs “soluble”; to “EQAEAQLAELDLLASMFPGENELIVNDQLAVAELKDCIEKKTMEGRSSKVYFTINMNLDVSDEKMAMFSLACILPFKYPAVLPEITVRSVLLSRSQQTQLNTDLTAFLQKHCHGDVCILNATEWVREHASGYVSRDTSS”, “soluble”.
To “EQIDRWNQVSEYIERLNVLEDNGSNTLIIASGIAYPYVKEITEEEGLNANIFRLVTPVPIPEKSILDSMTRVKKVLVVEENDPVVELQLSQLMVKNGIMKELHGKDLVSPIGELTLEKVRGAIMGFFGKEYVRSYPDDVSLRTRPPALCPGCPHRSSFYDIKKGLSKVSMQKAFFSGDIGCYTLGALPPFNEQDSATNMGSSVGISNGVFRATGQIPVSIIGDSTFFHSGLQGVANAVYNGTPEIIIVLDNRSTAMTGQQPSPSTHISIENVARAMGIDFVDTFDPFDVKEGSDAVQKAAEYVKENKKPALIVAKRACALEVLEKVGDYTMKAEVDLEKCTGCSICYDFFTCPSILPLSNKKAFIDDSCIGCGACVEVCPFNAIK” belongs “not soluble”; to “EQQADGTWLMDGWISIRKASNLLEHDLVDEAERYSTLGGYLLWQFGYIPAAGEQITVDGLIFEIVSVNKHNIGKVRVHRTQPENE”, “not soluble”.
To “ERVPEGSIRVAIASNNGEQLDGHFGSCLRFLVYQVSAKDASLVDIRSTLDVALAEDKNAWRVEQIQDCQVLYVVSIGGPAAAKVVRAGIHPLKKPKGCAAQEAIAELQTVMAGSPPPWLAKLVGVSAEERVRFSVSDDEDEAARA” belongs “soluble”; to “EVIDLASPIEAHGETLSQVTFRRPTAQEARAIKALPYKIDKNEDVSLDLDVAAKYIAVCAGIPPSSVNQMDLCDINTLSWKVASFFMAAAS”, “not soluble”.
As for “EVQLLEQSGAEVKKPGSSVQVSCKASGGTFSMYGFNWVRQAPGHGLEWMGGIIPIFGTSNYAQKFRGRVTFTADQATSTAYMELTNLRSDDTAVYYCARDFGPDWEDGDSYDGSGRGFFDFWGQGTLVTVSSASTKGPSVFPLAPSSKSTSGGTAALGCLVKDYFPEPVTVSWNSGALTSGVHTFPAVLQSSGLYSLSSVVTVPSSSLGTQTYICNVNHKPSNTKVDKKVEPKSCDKTS”, the “soluble on expression in E. coli” value was “soluble”.
Under “EVQLVESGGGLVQPGGSLRLSCAASGFTISSSSIHWVRQAPGKGLEWVAWVLPSVGFTDYADSVKGRFTISADTSKNTAYLQMNSLRAEDTAVYYCARRVCYNRLGVCAGGMDYWGQGTLVTVSSASTKGPSVFPLAPSSKSTSGGTAALGCLVKDYFPEPVTVSWNSGALTSGVHTFPAVLQSSGLYSLSSVVTVPSSSLGTQTYICNVNHKPSNTKVDKKVEPKSCDKTH” stands “soluble”; under “EYYDVRGWDPHDRQVYTPIHEACYDRGGIFFAFFDDEQMIAAAALDTLPRGMNGELRQLLFFYVGAGKRGQGWGRRLFQYALHQLPEMGASGLYISSIPNKNTVDFYLAQG”, “not soluble”; under “FADRMVIKAQSPAGFAEEYIIESIWNNRFPPGTILPAERELSELIGVTRTTLREVLQRLARDGWLTIQHGKPTKVNNFWETSGLNILETLARLDHESVPQLIDNLLSVRTNISTIFIRTAFRQHPDKAQEVLATANEVADHADAFAELDYNIFRGLAFASGNPIYGLILNGMKGLYTRIGRHYFANPEARSLALGFYHKLSALCSEGAHDQVYETVRRYGHESGEIWHRMQKNLPGDLAIQGR”, “soluble”.
Regarding “FGNFNFNTNFVFGYAKNRVDYKAEAQQKYEWLRETGRQIGQPFGYHWIGYYTPEDIEKINSGAADAPAKPDIAVQAGDLKYADLNGDGTINDFDKRAIGKPNLPTTTLGWTIGGSWKGFSISVLFQGSFDYSFAINGTGIESGKSQFQPLHQKRWTQERYENGESIEFPRLTMQDGTINSASAYNSDFWLINAWYIRLKTVDLGYQLPKTALPKFLDNVRFYVNAYNLLTFTGYDKYQQDPEIKTNTAGDAYMNQRVINFGVQLGF”, the “soluble on expression in E. coli” value was “not soluble”.
As for “FNDWYVSARANFTYNRNKKLYDDKPTPIWPYQSEAGFAYRQQRGLIALGLFESEEDIANSPKQNFGNVRPGDIKYKDINGDNVIDAYDKVAIGYTDVPEINYGFGISLGWKGFDASLFMQGVGNVTRIIGGDALYGASDNIERLGQIYADVAEKRWTTSNPNPNATYPRLSMSKVENNLQPSTYWQRNMSFLRLKNVEIGYTLPKHIYKRLGMSSIRVYAQGVNLLTFSKFKLWDPELDSNYGNIYPQMRTITLGLNLNF”, the “soluble on expression in E. coli” value is given as “not soluble”.
Under “FQDVTNTPVEGMKPYTALQLEGRDIYIREGCVGCHSQMIRPFRAETERYGHYSVAGESVWDHPFLWGSKRTGPDLARVGSRYSDDWHRAHLFNPRNVVPESKMPAYPWLVENKLDGKDIEKKLEVMRTLGVPYTDEDIKGAKDSLKGKTEMDAVVAYLQVLGTSIK” stands “not soluble”; under “FRFCFKQMNKSQHELVLGWIHQPHINEWLHGDGLSNTIKDLHEFLNDGKPWATHWIAYDNEIPFAYLITSEIEKSEEYPDGAVTLDLFICRLDYIGKGLSVQMIHEFILSQFSDTKIVLINPEISNERAVHVYKKAGFEIIGEFIASWHPVPHYKMKLCI”, “not soluble”; under “FTGFFIGPMAEVTIPLVGLGVDGALLFAQRGVKVGDESIRQNGLDIPINLKYTIGLGSALGIYVAAGPDFYFNFSGDKNYGELGRLNKKNAQVGINVGAGVKLLRHLQVGANYNIPLNKTAEWKEADFSYKTKMWQISAAYIF”, “not soluble”.
To “FTNPGQIVGRIDRDSGMTSTAPAMPDGDWQAYGRTEFGDRYSPLKQITPANVGQLEEAWRIRTGDLPTADDPLELTNENTPLKVNGMLYACTAHSKVLALDPDTGAEIWRFDPQIQSPVGFKGFAHMTCRGVSYYDEEQYARSDVGAPPAALSEAGKAVAASCPRRLFLPTADARLIAINADNGKVCEDFGVKGAVDLTAGIGPFTPGGYYSTSPAAVTRNLVIIGGHVTDNESTNEPSGVIRAFDVHDGKLVWNWDSGNPDETEPLAPGKFYTRNSPNMWSLASVDEKLGQVYLPLGNQMPDQWGGNRTPGAEKFSAGLVALDLNTGKLRWNYQFTHHDLWDMDVGSQPTLLDLKTADGVKPALIAPTKQGSLYVLDRRDGTPIVPIREVPAPQGAVEGDHTAPTQARSDLNLLRPPLTERDMWGSSPFDQMLCRIQFRSLRYEGQYTPPSEQGSLIYPGNVGVFNWGGVSVDPVRQILFTSPNYMAFVSQMVPRDKVPSGSKREGETSGVQPNTGAPYAVIMHPFMSPIGLPCQAPSWGDVAGIDLTTAKVVWQHKNGTSRDNTPVPIGLTVGVPSMGGSITTAGGVAFLSGTLDQYLRAYDVKDGKQLWQARLPAGGQATPMSYTGKDGRQYVLIVAGGHGSFGTRMGDYIIAYALPR” belongs “not soluble”.
Consider “FYRNHYKITYKRRLSDLFREFYLTSSRTKWQLCITLGVALVMLVSRELGLPRPMWAGFAAMSVMQPFAEDLKQRVKHRLPGTIAGGLLFLLLCRVLPE”, for which the “soluble on expression in E. coli” value is listed as “not soluble”.
To “GAAAGVAAWLPFARAAAIGWMPVANCPMPLAPADKNKRQDELIVLNVSGRRFQTWRTTLERYPDTLLGSTEKEFFFNEDTKEYFFDRDPEVFRCVLNFYRTGKLHYPRYECISAYDDELAFYGILPEIIGDCCYEEYKDRKREN” belongs “soluble”; to “GADEEESTPCDNVETDQQTFACAAFNKQVAERELQSAYDELIERMRDQFGDEAGLMSRIEAAEKVWSQLRDADCKVETHAEQPGSNAYQIAWNSCIAQRSDERAEYLRSLGSQNSDEPAPED”, “soluble”.
In the case of “GAHMSVIKPEMKIKLCMRGTVNGHNFVIEGEGKGNPYEGTQILDLNVTEGAPLPFAYDILTTVFQYGNRAFTKYPADIQDYFKQTFPEGYHWERSMTYEDQGICTATSNISMRGDCFFYDIRFDGTNFPPNGPVMQKKTLKWEPSTEKMYVEDGVLKGDVNMRLLLEGGGHYRCDFKTTYKAKKEVRLPDAHKIDHRIEILKHDKDYNKVKLYENAVARYSMLPSQAK”, the “soluble on expression in E. coli” value is given as “soluble”.
Under “GAKSIYEFQVNAADGKPYDLSQHKGHPLLIYNVASRCGYTKGGYETATTLYNKYKGQGFTVLAFPCNQFAGQEPGTALEVKEFACTRFKADFPIMAKIDVNGSKAHPLYEFMKATIPGLFGTKAIKWNFTSFLIDRHGVPVERFSPGASVEDIEKKLLPLLGGARI” stands “soluble”; under “GALPDPVKPKAPKAVNPFHLGMAGYTFVNFDLDTTLKTLERLDIHYLCIKDFHLPLNSTDEQIRAFHDKCAAHKVTGYAVGPIYMKSEEEIDRAFDYAKRVGVKLIVGVPNYELLPYVDKKVKEYDFHYAIHLHGPDIKTYPDATDVWVHTKDLDPRIGMCLDVGHDLRNGCDPVADLKKYHTRVFDMHIKDVTDSSKAGVGIEIGRGKIDFPALIRMMREVNYTGMCSLEYEKDMKDPFLGIAESIGYFKAVSDLT”, “soluble”.
To “GAMDISPTNHHEMLQNLQTVVNELYREDVDYVADKILTRQTVMQESIARFHEIIAIDKNHLRAVEQAIEQTMHSLNAQIDVLTANRAKVQQFSSTSHVDDEDVNSIAVAKTDGLNQLYNLVAQDYALTDTIECLSRMLHRGTIPLDTFVKQGRELARQQFLVRWHIQRITSPLS” belongs “soluble”.
Take “GAMGNICNSGGVSRTYSPPTSPVYGSGVSSPSRFVGQYTLTSIHQLSSEERENFLDAHDPMRVYDLNSETSVYRTTQREYVRNGYATGNPNSGAIIALHEELQESPYAQHIGARPDQADAYRPRTAHVSSLNTPSLNVMAGQGALSALRGYAGSDHVTTEMRLGDFLDQGGKVYSDTSAMSAGGDSVEALIVTLPKGRKVPVNILD”: the “soluble on expression in E. coli” value is “soluble”.
To “GAMGSSLDNPTPFPNLGPSENPLKRLLVPGEEWEFEVTAFYRGRQVFQQTISCPEGLRLVGSEVGDRTLPGWPVTLPDPGMSLTDRGVMSYVRHVLSCLGGGLALWRAGQWLWAQRLGHCHTYWAVSEELLPNSGHGPDGEVPKDKEGGVFDLGPFIVDLITFTEGSGRSPRYALWFCVGESWPQDQPWTKRLVMVKVVPTCLRALVEMARVGGASSLENTVDLHISNSHPLSLTSDQYKAYLQDLVEGMDFQGPGES” belongs “soluble”; to “GAMIRSRQPLLDALGVDLPDELLSLALTHRSYAYENGGLPTNERLEFLGDAVLGLTITDALFHRHPDRSEGDLAKLRASVVNTQALADVARRLCAEGLGVHVLLGRGEANTGGADKSSILADGMESLLGAIYLQHGMEKAREVILRLFGPLLDAAPTLGAGLDWKTSLQELTAARGLGAPSYLVTSTGPDHDKEFTAVVVVMDSEYGSGVGRSKKEAEQKAAAAAWKALEVLDNAMPGKTSA”, “soluble”.
